According to PMC10511499:

Biological target: human dynein complex, wild type (tagged IC2C with the dynein subunits of 293 cells) (told two ways: 'Rat IC2C' (methods), human (results, legend) | human (endogenous in Flp-In T-REx 293 cells)) (UniProt Q14204)
Experiment: TIRF microscopy microtubule recruitment assay; mammalian proteins; dynein or DDB on biotin-microtubules, SRP90 assay buffer with 2 mM AMP-PNP, 10 min; apparent affinity

human dynactin p150-CC1 (residues 224-554) (from UniProt Q14203-1 224-554) (domain or fragment)
fold greater apparent affinity than Ndel1: 6 fold
